Key:
[1] = system: F344 rats, lung graft; experiment: Airway administration of apyrase agent after rat lung graft (Example 10); assay type: in vivo; conditions: for PaO2: saline about 200; for neutrophil accumulation in lung graft airways: saline control 12×10^2
Procedure: F344 rat lung grafts were flushed and cold preserved in Apyrase agent solution (0.2 mg/L) and engrafted into syngeneic F344 recipients.
At 5 minutes post-reperfusion 1 ml apyrase agent solution (1 mg/kg) (N=6) or an equivalent volume of saline carrier was administered to the trachea at approximately 5 minutes post-reperfusion (N=7). In additional group of lung graft recipients that were treated with apyrase agent intratracheally, apyrase agent was also administered intravenously at 7 minutes post-reperfusion at 0.66 mg/kg (N=9). Lung graft oxygenation, airway cellularity and airway granulocyte numbers were measured 4 hours post-reperfusion. We noted no gross pulmonary hematomas in any treatment groups.

[2] = system: Fischer 344 rats, lung isograft; experiment: Orthotopic left lung transplantation in rats after 18 hours of cold preservation, ischemia-reperfusion injury (Example 9); assay type: in vivo, rat; conditions: for TUNEL positive EC per 400× field: 4 hours after reperfusion, 0.66 mg/kg, N=7/group
Procedure: Fischer 344 rats (Harlan Sprague Dawley, Inc, Indianapolis, Ind.), weighing 250 to 300 grams, were subjected to orthotopic left lung transplantation.
The cuff technique (Robson, S. C., et al., Semin. Thromb. Hemost. (2005) 31:217 was used. In brief, after general anesthesia with intraperitoneal pentobarbital (65 mg/kg), mechanical ventilation, systemic heparinization (300 units), and median laparosternotomy, donor rat lungs were flushed through the main pulmonary artery with 20 mL of cold (4° C.) low-potassium dextran glucose solution at 20 cm H2O pressure. In apyrase agent-treated groups, 0.1 mg/L apyrase agent was added to the cold preservation medium. The heart-lung block was then removed with the lungs inflated at end-tidal volume. The left lung graft was isolated, prepared, and stored in low-potassium dextran glucose at 4° C. until transplantation. After 18 hours of cold preservation, recipient animals were anesthetized, intubated with a 14-gauge catheter, and underwent a left thoracotomy. The pulmonary vessels and bronchus were anastomosed with a standard cuff technique. In the sham group, the rats underwent anesthesia and thoracotomy alone. In apyrase agent-treated groups recipients received treatment intravenously through the internal jugular vein 7 minutes after graft reperfusion. In dose response studies apyrase agent was administered at a dose of either 0.07, 0.22 or 0.66 mg/kg of recipient weight. In all other studies apyrase agent was administered at a dose of 0.66 mg/kg of recipient weight. In the vehicle-treated groups, rats received a saline bolus 7 minutes after reperfusion.
The function of the left lung was assessed 4 hours after transplantation. Rats in each group were reanesthetized with pentobarbital. After tracheostomy, the animals were mechanically ventilated with 100% oxygen and a laparosternotomy was performed. The right hilar structures were clamped to isolate the left lung graft. The animals were ventilated for 5 minutes at a tidal volume of 1.5 mL, a respiratory rate of 100 breaths/min, and 1.0 cm H2O of positive end-expiratory pressure. Arterial blood gas analysis was performed with blood samples obtained from the ascending aorta. The lungs were flushed with 20 mL of cold (4° C.) saline solution, and the lung graft was excised and divided into 3 separate sections. The upper and middle sections were snap frozen. The upper section was used for enzyme-linked immunosorbent assay (ELISA) and the middle section was used for myeloperoxidase (MPO) assay. The lower section was weighed, dried at 70° C. for 48 hours, and then reweighed for calculation of the wet/dry (W/D) ratio.
Quantitative MPO activity was determined also previously described (Krawisz, J. E., et al., Gastroenterology (1984) 87:1344). Optical density was measured at 460 nm with a spectrophotometer (model PMQ II; Carl Zeiss, Oberkochen, Germany). Color development was linear from 5 minutes to 20 minutes. One unit of enzyme activity was defined as 1.0 optical density unit per minute per milligram of tissue protein at room temperature.
Proinflammatory cytokine and chemokine measurement was made on lung samples which were homogenized with T-PER Extraction Reagent (Pierce, Rockford, Ill.). Lung homogenates were centrifuged twice at 10,000 rpm at 4° C. for 5 min, and the supernatants were collected. The content of tumor necrosis factor-α (TNF-α, interleukin-1β (IL-1β) and macrophage inflammatory protein-2 (MIP-2) were determined by using ELISA kits (BioSource International, Inc, Camarillo, Calif.) in accordance with manufacturer's instructions.
For TUNEL assay, lung specimens harvested 4 hours after reperfusion were perfused with 20 mL isotonic sodium chloride solution and inflation fixed with 20 mL HistoChoice (Amresco Inc, Solon, Ohio). Specimens were cut, mounted, de-paraffinized, and then steam-treated with Dako target retrieval solution (Dako, Carpentaria, Calif.) and quenched with 3% hydrogen peroxide. […]

[3] = system: rabbits; conditions: rabbit, in vivo
Procedure: Rabbits were anesthetized with intramuscular ketamine/xylazine followed by inhaled isoflurane to maintain a stable level of surgical anesthesia for 5 h. Arterial blood pressure was monitored continuously and values for pressure and heart rate recorded at intervals after administration of apyrase agent and/or other antiplatelet agents. Venous blood samples were collected at baseline (before agents were given) for analysis of CBC and chemistry and samples were obtained serially for assay of prothrombin time (PT) and activated partial prothromboplastin time (aPTT).

[4] = Pharmacokinetic study in rabbits, single IV bolus (serum ADPase and ATPase activities); assay type: in vivo, rabbit
Procedure: Pharmacokinetic studies of apyrase agent (sol CD39L3 R67G T69R) were conducted in rabbits where a single bolus was injected intravenously. At various time points (10 min to 24 h after injection), rabbits were bled by cardiac puncture and serum was prepared. Serum samples were examined for both ADPase and ATPase activities.

[5] = system: pigs, coronary injury with stenting; experiment: Coronary injury (balloon overstretch) and bare metal stent in pigs: platelet accumulation and luminal stenosis (Example 6); assay type: in vivo, pig; conditions: 30 days after stenting, six measurements in two pigs
Procedure: Coronary injury with or without stenting in pigs is regarded as the best preclinical model for simulation of human angioplasty (Touchard, A. G., et al., Thromb. Res. (2007) 120:477-484). One coronary artery was injured by balloon overstretch in each pig and the site of injury including some overlap with the non-injured vessel was covered with a single bare metal stent (BMS).
Accumulation of ^111In-labeled autologous platelets on the stents over the first 24 h was measured in 4/6 pigs in each group. Radiolabeled platelets were injected 15 min before the coronary catheterization and the hearts perfusion-fixed after 24 h to obtain the stented vessel segment for counting radiolabeled platelets.

B1: sol CD39L3 R67G T69R (protein)
chain: EVLPPGLKYGIVLDAGSSGTRVYVYQWPAEKENNTGVVSQTFKCSVKGSGISSYGNNPQDVPRAFEECMQKVKGQVPSHLHGSTPIHLGATAGMRLLRLQNETAANEVLESIQSYFKSQPFDFRGAQIISGQEEGVYGWITANYLMGNFLEKNLWHMWVHPHGVETTGALDLGGASTQISFVAGEKMDLNTSDIMQVSLYGYVYTLYTHSFQCYGRNEAEKKFLAMLLQNSPTKNHLTNPCYPRDYSISFTMGHVFDSLCTVDQRPESYNPNDVITFEGTGDPSLCKEKVASIFDFKACHDQETCSFDGVYQPKIKGPFVAFAGFYYTASALNLSGSFSLDTFNSSTWNFCSQNWSQLPLLLPKFDEVYARSYCFSANYIYHLFVNGYKFTEETWPQIHFEKEVGNSSIAWSLGYMLSLTNQIPAESPLIRLPIEPPV
modifications: glycosylated; synthetically constructed apyrase
PaO2 ([1]; IT 1 mg/kg and IV 0.66 mg/kg, 4 hours post-reperfusion): ~320 mm Hg
reduction of neutrophils in the airway ([1]; airway administration, 4 hours post-reperfusion): over 50%
neutrophil accumulation in lung graft airways ([1]; airway alone): 5×10^2 neutrophils
neutrophil accumulation in lung graft airways ([1]; airway and IV): 3×10^2 neutrophils
PaO2 ([1]; intratracheally (IT) 1 mg/kg, 4 hours post-reperfusion): about 300 mm Hg
pulmonary edema (wet to dry weight ratio) ([2]; 0.22 mg/kg IV, 4 hours): trended to lower mean levels
lung function (arterial PO2) compared to saline-treated recipients ([2]; 0.22 mg/kg IV, 4 hours after transplantation): trend towards better lung function
lung graft histopathology (hematoxylin and eosin) compared to saline-treated recipients ([2]; 0.66 mg/kg IV 7 minutes after reperfusion): less apparent alveolar hemorrhage and microvascular injury
pulmonary edema (wet to dry weight ratio) ([2]; 0.66 mg/kg IV, 4 hours): significantly attenuated
lung function (arterial PO2) compared to saline-treated recipients ([2]; 0.66 mg/kg IV, 4 hours after transplantation): significant improvement
MPO activity in lung grafts ([2]; 4 hours): reduced
expression of E-selectin on endothelial cells ([2]; 4 hours): reduced
ADP concentration in the BAL fluid relative to saline-treated recipients ([2]; 4 hours after engraftment): significantly lower concentrations
ATP concentration in the BAL fluid relative to saline-treated recipients ([2]; 4 hours after engraftment): significantly lower concentrations
TUNEL positive EC per 400× field [2]: significantly fewer apoptotic EC
TUNEL positive EC per 400× field ([2]; listed as apyrase): three
numbers of neutrophils recovered from the airways ([2]; 4 hours after transplantation): significant decrease
total cells in the BAL ([2]; 4 hours after transplantation): significantly fewer cells
intragraft level of TNFa (ELISA) ([2]; 4 hrs of reperfusion, saline about 75): about 35 pg/mg
intragraft level of MIP-2 (ELISA) ([2]; 4 hrs of reperfusion, saline about 1,800): about 1,300 pg/mg
intragraft level of IL-1β (ELISA) ([2]; 4 hrs of reperfusion, saline about 2,200): about 1,100 pg/mg
PT [3]: Neither PT nor aPTT were changed significantly
aPTT [3]: Neither PT nor aPTT were changed significantly
blood pressure [3]: Neither blood pressure nor heart rate changed significantly
heart rate [3]: Neither blood pressure nor heart rate changed significantly
half life in the circulation [4]: approximately 24 h
average luminal stenosis [5]: 19.8±2%

Reference: patent US8535662B2, “Apyrase therapy for bleeding conditions” (Apt Therapeutics, Inc., priority 2010, dated 2013)
